Laboratory results: the supplement of paper PMC7877785
± gives the uncertainty stated by the source.

Experiment: self-splicing fitness, log relative to wild type (ln ratio); higher = more splicing; Tetrahymena group I intron in knt gene, E. coli kanamycin selection, DiMSum; sequences stand for … in CUCUCU…GGAGGGAAAAGUUAUCAGGCAUGCACCUGGUAGCUAGUCUUUAAACCAAUAGAUUGCAUCGGUUUAAAAGGCAAGACCGUCAAAUUGCGGGAAAGGGGUCAACAGCCGUUCAGUACCAAGUCUCAGGGGAAACUUUGAGAUGGCCUUGCAAAGGGUAUGGUAAUAAGCUGACGGACAUGGUCCUAACCACGCAGCCAAGUCCUAAGUCAACAGAUCUUCUGUUGAUAUGGAUGCAGUUCACAGACUAAAUGUCGGUCGGGGAAGAUGUAUUCUUCUCAUAAGAUAUAGUCGGACCUCUCCUUAAUGGGAGCUAGCGGAUGAAGUGAUGCAACACUGGAGCCGCUGGGAACUAAUUUGUAUGCGAAAGUAUAUUGAUUAGUUUUGGAGUACUCGUGGUCG
Procedure, shortened: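 Pooled colonies went to amplicon sequencing on an Illumina HiSeq 2500 after six replicate transformations. The plates were LB agar with 100 μg/mL carbenicillin, 50 μM IPTG and 0.2% rhamnose, with or without 25 μg/mL kanamycin, incubated overnight at 37°C or 30°C. The E. coli BL21(DE3) library had all eight P1ex-region intron nucleotides randomised, the intron placed in the knt kanamycin-resistance gene on pET-22b(+). DiMSum fitness is the error-weighted combination of replicate fold changes, kanamycin against none, normalised to wild type.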

Sequence | self-splicing fitness (ln) (30 °C) | self-splicing fitness (ln) (37 °C)
CCUUAGCAAUAUUACGAUUC | -3.68 ± 0.25 | -3.28 ± 0.47
AGAAAGCAAUAUUACGCGGG | -2.43 ± 0.24 | -2.25 ± 0.26
UUAUAGCAAUAUUACGUACC | -3.97 ± 0.31 | -3.01 ± 0.3
CGAUAGCAAUAUUACGUCCU | -1.29 ± 0.16 | -0.541 ± 0.19
CGCCAGCAAUAUUACGCAUG | -0.241 ± 0.077 | -1.06 ± 0.1
UCAGAGCAAUAUUACGGUGC | -3.88 ± 0.35 | -0.485 ± 0.15
CCCGAGCAAUAUUACGAUGA | -3.45 ± 0.43 | -2.4 ± 0.28
CGCUAGCAAUAUUACGAUUC | -3.29 ± 0.36 | -2.12 ± 0.21
AUAUAGCAAUAUUACGUCGA | -2.07 ± 0.17 | -1.51 ± 0.2
AUAAAGCAAUAUUACGGGUA | -0.752 ± 0.082 | -1.06 ± 0.1
GCUGAGCAAUAUUACGGACU | -2.6 ± 0.36 | -1.36 ± 0.24
AAUGAGCAAUAUUACGAGGC |  | -3.11 ± 0.4
UAUCAGCAAUAUUACGACCG | -0.12 ± 0.081 | 0.738 ± 0.11
GUAGAGCAAUAUUACGUGUU | -3.68 ± 0.21 | -2.04 ± 0.19
GAGAAGCAAUAUUACGCCCA | -0.503 ± 0.2 | -0.351 ± 0.18
AAACAGCAAUAUUACGUUAU | -2.23 ± 0.072 | -1.22 ± 0.085
UCAUAGCAAUAUUACGGAGU | -3.88 ± 0.34 | -2.86 ± 0.25
GAAUAGCAAUAUUACGACCA | -0.287 ± 0.13 | -0.616 ± 0.13
GGCGAGCAAUAUUACGCUUC | -3.8 ± 0.34 | -2.53 ± 0.49
CCUGAGCAAUAUUACGAACU | -3.4 ± 0.13 | -2.42 ± 0.17
GCAGAGCAAUAUUACGACCU |  | -1.59 ± 0.42
UGACAGCAAUAUUACGUGGA | -3 ± 0.21 | -2.31 ± 0.2

Sequence | self-splicing fitness (ln) (30 °C) | self-splicing fitness (ln) (37 °C)
UAAGAGCAAUAUUACGGAAG | -2.8 ± 0.41 | 
UAUAAGCAAUAUUACGGGAG | -2.07 ± 0.11 | -1.64 ± 0.12
CUUGAGCAAUAUUACGGCUC |  | -1.67 ± 0.36
UGUUAGCAAUAUUACGGCAU | -3.67 ± 0.32 | -1.95 ± 0.27
CCGUAGCAAUAUUACGUAAC | -4.68 ± 0.46 | -0.709 ± 0.24
AUGAAGCAAUAUUACGAGCU | -1.52 ± 0.12 | -0.173 ± 0.14
GACGAGCAAUAUUACGGUGA | -3.52 ± 0.23 | -2.05 ± 0.26
CCAUAGCAAUAUUACGUGUU | -3.47 ± 0.14 | -3.36 ± 0.16
UGCGAGCAAUAUUACGGCGG | -1.21 ± 0.084 | -0.816 ± 0.13
AAGCAGCAAUAUUACGCGAA | -1.77 ± 0.083 | -1.2 ± 0.1
UCCUAGCAAUAUUACGACCG | -3.3 ± 0.28 | -3.65 ± 0.34
AUGCAGCAAUAUUACGGUAA | -0.979 ± 0.11 | -0.791 ± 0.1
AUCAAGCAAUAUUACGGAAU | -1.94 ± 0.071 | -1.03 ± 0.083
UUGCAGCAAUAUUACGCCCG | -0.555 ± 0.18 | -1.07 ± 0.18
GGAGAGCAAUAUUACGCUUG | -3.1 ± 0.16 | -2.01 ± 0.21
CAAUAGCAAUAUUACGGCAA | -3.51 ± 0.38 | -1.11 ± 0.22
CAUUAGCAAUAUUACGCCCG | 0.404 ± 0.13 | 0.579 ± 0.17
CCAAAGCAAUAUUACGACUG | -0.588 ± 0.071 | -0.0799 ± 0.091
AUAGAGCAAUAUUACGGCGG | -1.71 ± 0.1 | -1.32 ± 0.13
CGAAAGCAAUAUUACGGGCC | -3.07 ± 0.23 | -3.07 ± 0.21
UCCAAGCAAUAUUACGUGUU | -3.46 ± 0.15 | -1.85 ± 0.13
